Reference: PMC5364394

Target: FLAG-SF2/ASF purified (human, UniProt Q07955 1-248)
Experiment: EMSA
Settings: protein: recombinant; tags: FLAG; label: IRDye-800

Sequence of FLAG-SF2/ASF purified (Q07955 whole entry): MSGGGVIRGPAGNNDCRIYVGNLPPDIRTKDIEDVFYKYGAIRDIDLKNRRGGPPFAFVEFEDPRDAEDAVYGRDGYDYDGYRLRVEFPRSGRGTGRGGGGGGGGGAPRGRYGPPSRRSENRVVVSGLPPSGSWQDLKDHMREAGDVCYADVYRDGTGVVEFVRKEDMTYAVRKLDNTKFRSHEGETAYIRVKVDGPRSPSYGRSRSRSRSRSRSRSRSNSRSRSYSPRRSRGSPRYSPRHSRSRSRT

B1: H7N9-NS-529-548 (NEP-ESE, 540A, WT) (ssRNA)
RNA: GACAUACUGACAAGGAUGUC
**Q.** Does B1 bind?
**A.** binds
